Measurements: PMC8310357

Biological target: Ostreolysin A6 (Pleurotus ostreatus) (UniProt P83467)
Chain of UniProt P83467 (P83467 whole entry): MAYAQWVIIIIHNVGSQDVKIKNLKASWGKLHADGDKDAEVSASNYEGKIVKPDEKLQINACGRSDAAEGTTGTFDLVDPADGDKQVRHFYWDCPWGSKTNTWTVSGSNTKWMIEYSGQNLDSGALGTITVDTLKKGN

How did the haemolysis of bovine erythrocytes, aegerolysin/MACPF-protein 12.5/1, 25 °C; against OlyA6/PlyB turn out when Δ48EryB (erylysin B) (natural protein) was run?
The haemolysis of bovine erythrocytes, aegerolysin/MACPF-protein 12.5/1, 25 °C; against OlyA6/PlyB was 90 % lower.
